Laboratory results from patent US20120171195A1.

Key:
HLA-B*1401 (human) = HLA-B*1401 (human) (UniProt P01889); experiment: Luminex beads; MAb 1/200; PBS only
HLA-B*4006 (human) = HLA-B*4006 (human) (UniProt P01889); experiment: Luminex beads; MAb 1/200; PBS only
HLA-B*4501 (human) = experiment: Luminex beads; MAb 1/200; PBS only
HLA-B*5801 (human) [1] = experiment: Luminex beads; MAb 1/200; PBS only
HLA-Cw*0202 (human) = experiment: Luminex beads; MAb 1/200; PBS only
HLA-Cw*0501 (human) [2] = experiment: Luminex beads; MAb 1/200; PBS only
HLA-Cw*1701 (human) [3] = experiment: Luminex beads; MAb 1/200; PBS only
HLA-Cw*1802 (human) = HLA-Cw*1802 (human) (UniProt P10321); experiment: Luminex beads; MAb 1/200; PBS only
HLA-B*1402 (human) [4] = experiment: Luminex beads; MAb 1/400; competitor rHLA-E
HLA-B*1511 (human) [5] = biological target: HLA-B*1511 (human) (UniProt P01889); experiment: Luminex beads; MAb 1/400; competitor rHLA-E
HLA-B*1513 (human) = experiment: Luminex beads; MAb 1/400; competitor rHLA-E
HLA-B*3701 (human) = experiment: Luminex beads; MAb 1/400; competitor rHLA-E
HLA-B*5101 (human) [6] = experiment: Luminex beads; MAb 1/400; competitor rHLA-E
HLA-Cw*0302 (human) [7] = biological target: HLA-Cw*0302 (human) (UniProt P10321); experiment: Luminex beads; MAb 1/400; competitor rHLA-E
HLA-Cw*0501 (human) [8] = experiment: Luminex beads; MAb 1/400; competitor rHLA-E
HLA-Cw*1601 (human) = HLA-Cw*1601 (human) (UniProt P10321); experiment: Luminex beads; MAb 1/400; competitor rHLA-E
HLA-Cw*1701 (human) [9] = experiment: Luminex beads; MAb 1/400; competitor rHLA-E
HLA-B*1402 (human) [10] = experiment: Luminex beads; MAb 1/1600; competitor IgG-free serum
HLA-B*1502 (human) = experiment: as above
HLA-B*1511 (human) [11] = biological target: HLA-B*1511 (human) (UniProt P01889); experiment: as above
HLA-B*2708 (human) = HLA-B*2708 (human) (UniProt P01889); experiment: as above
HLA-B*4002 (human) = HLA-B*4002 (human) (UniProt P01889); experiment: as above
HLA-B*4101 (human) = HLA-B*4101 (human) (UniProt P01889); experiment: as above
HLA-B*4402 (human) = experiment: as above
HLA-B*4801 (human) = HLA-B*4801 (human) (UniProt P01889); experiment: as above
HLA-B*5101 (human) [12] = experiment: as above
HLA-B*5201 (human) = experiment: as above
HLA-B*5801 (human) [13] = experiment: as above
HLA-Cw*0302 (human) [14] = biological target: HLA-Cw*0302 (human) (UniProt P10321); experiment: as above
HLA-Cw*0303 (human) = experiment: as above
HLA-Cw*0304 (human) = experiment: as above
HLA-Cw*0702 (human) = HLA-Cw*0702 (human) (UniProt P10321); experiment: as above
HLA-Cw*0801 (human) = HLA-Cw*0801 (human) (UniProt P10321); experiment: as above
HLA-Cw*1402 (human) = HLA-Cw*1402 (human) (UniProt P10321); experiment: as above
HLA-Cw*1502 (human) = experiment: as above
HLA-Cw*1701 (human) [15] = experiment: as above
HLA-A*2601 (A26) (human) = experiment: Luminex single-antigen beads; MEM-E/02 1/600; serum Mi92 1/100
HLA-A*3201 (A32) (human) = experiment: as above
HLA-B*1513 (B77) (human) = experiment: as above
HLA-B*1801 (B18) (human) = experiment: as above
HLA-B*3801 (B38) (human) = experiment: as above
HLA-B*4403 (B44) (human) = experiment: as above
HLA-B*4901 (B49) (human) = experiment: as above
HLA-B*5301 (B53) (human) = experiment: as above
HLA-B*6701 (B67) (human) = HLA-B*6701 (B67) (human) (UniProt P01889); experiment: as above

## murine monoclonal antibody (MAb) MEM-E/02
HLA-B*1401 (human)
  MFI: 5330 MFI
HLA-B*4006 (human)
  MFI: 7010 MFI
HLA-B*4501 (human)
  MFI: 3670 MFI
HLA-B*5801 (human) [1]
  MFI: 2830 MFI
HLA-Cw*0202 (human)
  MFI: 3020 MFI
HLA-Cw*0501 (human) [2]
  MFI: 5830 MFI
HLA-Cw*1701 (human) [3]
  MFI: 2270 MFI
HLA-Cw*1802 (human)
  MFI: 8830 MFI
HLA-B*1402 (human) [4]
  MFI: 88 MFI
HLA-B*1511 (human) [5]
  MFI: 111 MFI
HLA-B*1513 (human)
  MFI: 228 MFI
HLA-B*3701 (human)
  MFI: 39 MFI
HLA-B*5101 (human) [6]
  MFI: 128 MFI
HLA-Cw*0302 (human) [7]
  MFI: 130 MFI
HLA-Cw*0501 (human) [8]
  MFI: 87 MFI
HLA-Cw*1601 (human)
  MFI: 87 MFI
HLA-Cw*1701 (human) [9]
  MFI: 184 MFI
HLA-B*1402 (human) [10]
  MFI: 301 MFI
HLA-B*1502 (human)
  MFI: 350 MFI
HLA-B*1511 (human) [11]
  MFI: 388 MFI
HLA-B*2708 (human)
  MFI: 272 MFI
HLA-B*4002 (human)
  MFI: 403 MFI
HLA-B*4101 (human)
  MFI: 392 MFI
HLA-B*4402 (human)
  MFI: 248 MFI
HLA-B*4801 (human)
  MFI: 412 MFI
HLA-B*5101 (human) [12]
  MFI: 281 MFI
HLA-B*5201 (human)
  MFI: 337 MFI
HLA-B*5801 (human) [13]
  MFI: 485 MFI
HLA-Cw*0302 (human) [14]
  MFI: 335 MFI
HLA-Cw*0303 (human)
  MFI: 332 MFI
HLA-Cw*0304 (human)
  MFI: 370 MFI
HLA-Cw*0702 (human)
  MFI: 295 MFI
HLA-Cw*0801 (human)
  MFI: 865 MFI
HLA-Cw*1402 (human)
  MFI: 432 MFI
HLA-Cw*1502 (human)
  MFI: 317 MFI
HLA-Cw*1701 (human) [15]
  MFI: 392 MFI

## murine monoclonal antibody MAb MEM-E/02
HLA-A*2601 (A26) (human)
  MFI: < 500 MFI
HLA-A*3201 (A32) (human)
  MFI: < 500 MFI
HLA-B*1513 (B77) (human)
  MFI: < 500 MFI
HLA-B*1801 (B18) (human)
  MFI: < 500 MFI
HLA-B*3801 (B38) (human)
  MFI: < 500 MFI
HLA-B*4403 (B44) (human)
  MFI: 600 MFI
HLA-B*4901 (B49) (human)
  MFI: 890 MFI
HLA-B*5301 (B53) (human)
  MFI: 797 MFI
HLA-B*6701 (B67) (human)
  MFI: < 500 MFI
